T1: FcγRIIa R (human, UniProt P12318 34-217)
T1 construct: extracellular domain; also called FcgRIIa R type; 2aR
T1 sequence (looked up): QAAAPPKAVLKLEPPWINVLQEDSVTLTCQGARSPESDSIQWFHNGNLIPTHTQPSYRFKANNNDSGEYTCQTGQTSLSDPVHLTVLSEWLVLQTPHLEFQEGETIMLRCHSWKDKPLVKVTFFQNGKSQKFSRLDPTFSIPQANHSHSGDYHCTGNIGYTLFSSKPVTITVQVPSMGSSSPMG

B1: GpH7-A5/GpH7-B3 variant N325_06M/GpL16-k0 (antibody, human IgG1, kappa)
heavy 1: not shown
heavy 2: not shown
light: DIVMTQSPLSLPVTPGEPASISCQASESLVHSNRNTYLHWYLQKPGQSPQLLIYKVSNRFSGVPDRFSGSGSGTDFTLKISRVEAEDVGVYYCSQNTHVPPTFGQGTKVEIERTVAAPSVFIFPPSDEQLKSGTASVVCLLNNFYPREAKVQWKVDNALQSGNSQESVTEQDSKDSTYSLSSTLTLSKADYEKHKVYACEVTHQGLSSPVTKSFNRGEC
notes: also called He Ab N325_06M
B2: GpH7-A5/GpH7-B3 variant E333_09D/GpL16-k0 (antibody, human IgG1, kappa)
heavy 1: not shown
heavy 2: not shown
light: B1 light
notes: also called He Ab E333_09D
B3: GpH7-A5/GpH7-B3 variant K326_04F/GpL16-k0 (antibody, human IgG1, kappa)
heavy 1: not shown
heavy 2: not shown
light: B1 light
notes: also called He Ab K326_04F
B4: GpH7-A5/GpH7-B3 variant A330_19Q/GpL16-k0 (antibody, human IgG1, kappa)
heavy 1: not shown
heavy 2: not shown
light: B1 light
notes: also called He Ab A330_19Q
B5: GpH7-A5/GpH7-B3 variant K326_03V/GpL16-k0 (antibody, human IgG1, kappa)
heavy 1: not shown
heavy 2: not shown
light: B1 light
notes: also called He Ab K326_03V
B6: GpH7-A5/GpH7-B3 variant G237_19Q/GpL16-k0 (antibody, human IgG1, kappa)
heavy 1: not shown
heavy 2: not shown
light: B1 light
notes: also called He Ab G237_19Q
B7: GpH7-A5/GpH7-B3 variant G237_06M/GpL16-k0 (antibody, human IgG1, kappa)
heavy 1: not shown
heavy 2: not shown
light: B1 light
notes: also called He Ab G237_06M
B8: GpH7-A5/GpH7-B3 variant G237_08L/GpL16-k0 (antibody, human IgG1, kappa)
heavy 1: not shown
heavy 2: not shown
light: B1 light
notes: also called He Ab G237_08L
B9: GpH7-A5/GpH7-B3 variant E269_09D/GpL16-k0 (antibody, human IgG1, kappa)
heavy 1: not shown
heavy 2: not shown
light: B1 light
notes: also called He Ab E269_09D
B10: GpH7-A5/GpH7-B3 variant G236_14T/GpL16-k0 (antibody, human IgG1, kappa)
heavy 1: not shown
heavy 2: not shown
light: B1 light
notes: also called He Ab G236_14T
B11: GpH7-A5/GpH7-B3 variant G237_02A/GpL16-k0 (antibody, human IgG1, kappa)
heavy 1: not shown
heavy 2: not shown
light: B1 light
notes: also called He Ab G237_02A
B12: GpH7-A5/GpH7-B3 variant E333_08L/GpL16-k0 (antibody, human IgG1, kappa)
heavy 1: not shown
heavy 2: not shown
light: B1 light
notes: also called He Ab E333_08L
B13: GpH7-A5/GpH7-B3 variant H268_15Y/GpL16-k0 (antibody, human IgG1, kappa)
heavy 1: not shown
heavy 2: not shown
light: B1 light
notes: also called He Ab H268_15Y
B14: GpH7-A5/GpH7-B3 variant K326_08L/GpL16-k0 (antibody, human IgG1, kappa)
heavy 1: not shown
heavy 2: not shown
light: B1 light
notes: also called He Ab K326_08L
B15: GpH7-A5/GpH7-B3 variant I332_06M/GpL16-k0 (antibody, human IgG1, kappa)
heavy 1: not shown
heavy 2: not shown
light: B1 light
notes: also called He Ab I332_06M
B16: GpH7-A5/GpH7-B3 variant A330_01G/GpL16-k0 (antibody, human IgG1, kappa)
heavy 1: not shown
heavy 2: not shown
light: B1 light
notes: also called He Ab A330_01G
B17: GpH7-A5/GpH7-B3 variant E333_05P/GpL16-k0 (antibody, human IgG1, kappa)
heavy 1: not shown
heavy 2: not shown
light: B1 light
notes: also called He Ab E333_05P
B18: GpH7-A5/GpH7-B3 variant H268_20W/GpL16-k0 (antibody, human IgG1, kappa)
heavy 1: not shown
heavy 2: not shown
light: B1 light
notes: also called He Ab H268_20W
B19: GpH7-A5/GpH7-B3 variant K326_07I/GpL16-k0 (antibody, human IgG1, kappa)
heavy 1: not shown
heavy 2: not shown
light: B1 light
notes: also called He Ab K326_07I
B20: GpH7-A5/GpH7-B3 variant I332_14T/GpL16-k0 (antibody, human IgG1, kappa)
heavy 1: not shown
heavy 2: not shown
light: B1 light
notes: also called He Ab I332_14T
B21: GpH7-A5/GpH7-B3 variant A330_15Y/GpL16-k0 (antibody, human IgG1, kappa)
heavy 1: not shown
heavy 2: not shown
light: B1 light
notes: also called He Ab A330_15Y
B22: GpH7-A5/GpH7-B3 variant E333_04F/GpL16-k0 (antibody, human IgG1, kappa)
heavy 1: not shown
heavy 2: not shown
light: B1 light
notes: also called He Ab E333_04F
B23: GpH7-A5/GpH7-B3 variant A327_10E/GpL16-k0 (antibody, human IgG1, kappa)
heavy 1: not shown
heavy 2: not shown
light: B1 light
notes: also called He Ab A327_10E
B24: GpH7-A5/GpH7-B3 variant A330_05P/GpL16-k0 (antibody, human IgG1, kappa)
heavy 1: not shown
heavy 2: not shown
light: B1 light
notes: also called He Ab A330_05P
B25: GpH7-A5/GpH7-B3 variant G237_15Y/GpL16-k0 (antibody, human IgG1, kappa)
heavy 1: not shown
heavy 2: not shown
light: B1 light
notes: also called He Ab G237_15Y
B26: GpH7-A5/GpH7-B3 variant A327_09D/GpL16-k0 (antibody, human IgG1, kappa)
heavy 1: not shown
heavy 2: not shown
light: B1 light
notes: also called He Ab A327_09D
B27: GpH7-A5/GpH7-B3 variant H268_01G/GpL16-k0 (antibody, human IgG1, kappa)
heavy 1: not shown
heavy 2: not shown
light: B1 light
notes: also called He Ab H268_01G
B28: GpH7-A5/GpH7-B3 variant G237_04F/GpL16-k0 (antibody, human IgG1, kappa)
heavy 1: not shown
heavy 2: not shown
light: B1 light
notes: also called He Ab G237_04F
B29: GpH7-A5/GpH7-B3 variant I336_06M/GpL16-k0 (antibody, human IgG1, kappa)
heavy 1: not shown
heavy 2: not shown
light: B1 light
notes: also called He Ab I336_06M
B30: GpH7-A5/GpH7-B3 variant E333_15Y/GpL16-k0 (antibody, human IgG1, kappa)
heavy 1: not shown
heavy 2: not shown
light: B1 light
notes: also called He Ab E333_15Y
B31: GpH7-A5/GpH7-B3 variant E333_07I/GpL16-k0 (antibody, human IgG1, kappa)
heavy 1: not shown
heavy 2: not shown
light: B1 light
notes: also called He Ab E333_07I
B32: GpH7-A5/GpH7-B3 variant A330_11K/GpL16-k0 (antibody, human IgG1, kappa)
heavy 1: not shown
heavy 2: not shown
light: B1 light
notes: also called He Ab A330_11K
B33: GpH7-A5/GpH7-B3 variant I336_08L/GpL16-k0 (antibody, human IgG1, kappa)
heavy 1: not shown
heavy 2: not shown
light: B1 light
notes: also called He Ab I336_08L
B34: GpH7-A5/GpH7-B3 variant G237_10E/GpL16-k0 (antibody, human IgG1, kappa)
heavy 1: not shown
heavy 2: not shown
light: B1 light
notes: also called He Ab G237_10E
B35: GpH7-A5/GpH7-B3 variant G237_13S/GpL16-k0 (antibody, human IgG1, kappa)
heavy 1: not shown
heavy 2: not shown
light: B1 light
notes: also called He Ab G237_13S
B36: GpH7-A5/GpH7-B3 variant H268_03V/GpL16-k0 (antibody, human IgG1, kappa)
heavy 1: not shown
heavy 2: not shown
light: B1 light
notes: also called He Ab H268_03V
B37: GpH7-A5/GpH7-B3 variant I336_18N/GpL16-k0 (antibody, human IgG1, kappa)
heavy 1: not shown
heavy 2: not shown
light: B1 light
notes: also called He Ab I336_18N
B38: GpH7-A5/GpH7-B3 variant H268_05P/GpL16-k0 (antibody, human IgG1, kappa)
heavy 1: not shown
heavy 2: not shown
light: B1 light
notes: also called He Ab H268_05P
B39: GpH7-A5/GpH7-B3 variant G237_18N/GpL16-k0 (antibody, human IgG1, kappa)
heavy 1: not shown
heavy 2: not shown
light: B1 light
notes: also called He Ab G237_18N
B40: GpH7-A5/GpH7-B3 variant G237_20W/GpL16-k0 (antibody, human IgG1, kappa)
heavy 1: not shown
heavy 2: not shown
light: B1 light
notes: also called He Ab G237_20W
B41: GpH7-A5/GpH7-B3 variant A330_12R/GpL16-k0 (antibody, human IgG1, kappa)
heavy 1: not shown
heavy 2: not shown
light: B1 light
notes: also called He Ab A330_12R
B42: GpH7-A5/GpH7-B3 variant G237_09D/GpL16-k0 (antibody, human IgG1, kappa)
heavy 1: not shown
heavy 2: not shown
light: B1 light
notes: also called He Ab G237_09D
B43: GpH7-A5/GpH7-B3 variant H268_11K/GpL16-k0 (antibody, human IgG1, kappa)
heavy 1: not shown
heavy 2: not shown
light: B1 light
notes: also called He Ab H268_11K
B44: GpH7-A5/GpH7-B3 variant H268_12R/GpL16-k0 (antibody, human IgG1, kappa)
heavy 1: not shown
heavy 2: not shown
light: B1 light
notes: also called He Ab H268_12R

target: T1, FcγRIIa R; assay: SPR Biacore; vs GpH7-A5/GpH7-B3/GpL16-k0 =100

Row | He/Con_2aR | Binder
1 | 152 % of control | B1
2 | 103 % of control | B2
3 | 135 % of control | B3
4 | 104 % of control | B4
5 | 141 % of control | B5
6 | 121 % of control | B6
7 | 133 % of control | B7
8 | 133 % of control | B8
9 | 105 % of control | B9
10 | 103 % of control | B10
11 | 126 % of control | B11
12 | 103 % of control | B12
13 | 110 % of control | B13
14 | 137 % of control | B14
15 | 109 % of control | B15
16 | 109 % of control | B16
17 | 105 % of control | B17
18 | 113 % of control | B18
19 | 147 % of control | B19
20 | 105 % of control | B20
21 | 102 % of control | B21
22 | 102 % of control | B22

Row | He/Con_2aR | Binder
23 | 110 % of control | B23
24 | 115 % of control | B24
25 | 129 % of control | B25
26 | 124 % of control | B26
27 | 124 % of control | B27
28 | 126 % of control | B28
29 | 106 % of control | B29
30 | 101 % of control | B30
31 | 104 % of control | B31
32 | 110 % of control | B32
33 | 110 % of control | B33
34 | 116 % of control | B34
35 | 121 % of control | B35
36 | 109 % of control | B36
37 | 104 % of control | B37
38 | 106 % of control | B38
39 | 150 % of control | B39
40 | 138 % of control | B40
41 | 104 % of control | B41
42 | 156 % of control | B42
43 | 100 % of control | B43
44 | 105 % of control | B44

Source: patent publication US20180155451A1 (published 2018)
